This is an account of results in patent US20170158755A1 (PROTHENA BIOSCIENCES, published 2017).

In experiment [1] the target is T1, recombinant laminin 411 (human, UniProt P07942 22-1786; P11047 34-1609, limits assumed).
T1 construct: also called LAMA4 in complex with its gamma1 and beta1 chains
Kind of experiment: flow cytometric blocking assay; antibody pre-incubated with 650-labeled laminin 411; blocked partner: human MCAM on CHO cells; MFI. The method, then: The 19C12 variants chimeric 19C12, H2L3, H2L4, H2L6, H3L6, and isotype control were tested for their ability to block the binding of LAMA4 to its ligand MCAM (FIG. 15) and to bind LAMA4-displaying cells (FIG. 16). To test LAMA4 binding capacity, serially diluted antibodies were pre-incubated with LAMA4-displaying human 293 cells, followed by anti-human-650 secondary antibody incubation. […] Fluorescent signal was assessed via flow cytometric analyses and plotted as mean fluorescence intensity (MFI). All 19C12 variants retained their MCAM blocking and LAMA4 binding activity when compared with chimeric 19C12.
(§1) Following two washes with FACS buffer (1% FBS in PBS), cells were resuspended with 650-conjugated anti-pan-laminin antibody (1:1000; Novus Biologicals) and incubated for 20 min at 4° C., and washed again. Cells were analyzed for pan-laminin reactivity by flow cytometry using standard procedures.
(In flow cytometry, cells or beads pass a laser one at a time.)

In experiment [2] the target is T2, human LAMA4 LG4-5 modules displayed on 293 cells (human, UniProt Q16363 1453-1821).
T2 construct: pDisplay construct on 293 cells; vector tags and anchor not written here
T2 sequence: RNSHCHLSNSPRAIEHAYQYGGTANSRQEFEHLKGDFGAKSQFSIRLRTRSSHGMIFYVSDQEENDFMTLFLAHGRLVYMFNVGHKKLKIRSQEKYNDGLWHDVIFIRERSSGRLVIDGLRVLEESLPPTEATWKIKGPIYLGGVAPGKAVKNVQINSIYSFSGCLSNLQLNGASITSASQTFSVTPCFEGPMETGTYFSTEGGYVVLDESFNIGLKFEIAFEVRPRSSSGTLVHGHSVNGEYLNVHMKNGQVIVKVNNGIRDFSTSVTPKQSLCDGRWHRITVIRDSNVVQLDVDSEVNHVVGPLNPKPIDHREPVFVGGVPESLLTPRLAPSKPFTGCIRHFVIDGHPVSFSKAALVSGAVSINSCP
Kind of experiment: flow cytometry on 293 cells displaying LAMA4 G-domain variants, anti-human-650 secondary antibody; MFI. The method, then: The 19C12 variants chimeric 19C12, H1+chiL, and H2+chiL, and buffer alone were tested for their ability to block the binding of LAMA4 to its ligand MCAM (as shown in FIG. 11) and to bind LAMA4-displaying cells (full length, LG1-3, LG4-5, or untransfected control) (as shown in FIG. 12). […] To test LAMA4 binding capacity, serially diluted antibodies were pre-incubated with LAMA4-displaying human 293 cells, followed by anti-human-650 secondary antibody incubation. Fluorescent signal was assessed via flow cytometric analyses and plotted as mean fluorescence intensity (MFI).

A further experiment has as its target T3, human His-laminin-α4 (human, UniProt Q16363 833-1823, limits assumed).
T3 construct: Bought His-tagged recombinant protein (R & D Systems); also called Human LAMA4; human His-laminin-α4 (R & D Systems)
T3 sequence: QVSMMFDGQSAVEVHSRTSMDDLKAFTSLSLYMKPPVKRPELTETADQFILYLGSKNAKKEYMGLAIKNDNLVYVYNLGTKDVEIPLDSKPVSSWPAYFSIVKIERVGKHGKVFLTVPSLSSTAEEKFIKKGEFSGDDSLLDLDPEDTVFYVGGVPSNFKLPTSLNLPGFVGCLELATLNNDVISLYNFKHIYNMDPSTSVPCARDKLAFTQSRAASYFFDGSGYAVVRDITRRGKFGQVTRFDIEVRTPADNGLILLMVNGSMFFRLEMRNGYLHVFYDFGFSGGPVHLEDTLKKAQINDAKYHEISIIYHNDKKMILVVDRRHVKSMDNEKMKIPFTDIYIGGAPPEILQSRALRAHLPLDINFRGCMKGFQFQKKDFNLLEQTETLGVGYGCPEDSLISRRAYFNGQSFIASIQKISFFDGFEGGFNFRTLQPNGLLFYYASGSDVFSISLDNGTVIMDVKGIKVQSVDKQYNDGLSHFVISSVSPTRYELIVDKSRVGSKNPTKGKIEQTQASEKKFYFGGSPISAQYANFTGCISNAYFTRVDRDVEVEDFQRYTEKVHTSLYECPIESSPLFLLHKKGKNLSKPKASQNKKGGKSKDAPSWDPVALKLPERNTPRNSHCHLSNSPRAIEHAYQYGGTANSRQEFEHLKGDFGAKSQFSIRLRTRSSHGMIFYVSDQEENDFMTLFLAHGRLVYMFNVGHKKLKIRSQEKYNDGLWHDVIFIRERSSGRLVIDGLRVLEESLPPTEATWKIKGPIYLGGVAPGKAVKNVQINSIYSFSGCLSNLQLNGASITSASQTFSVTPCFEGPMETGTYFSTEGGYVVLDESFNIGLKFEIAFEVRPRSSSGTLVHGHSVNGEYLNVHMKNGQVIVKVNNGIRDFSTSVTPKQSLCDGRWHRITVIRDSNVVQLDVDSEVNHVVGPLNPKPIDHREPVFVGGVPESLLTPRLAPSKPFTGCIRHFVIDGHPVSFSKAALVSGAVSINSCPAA
The experiment in a line: Biacore SPR. On the technique in general: Surface plasmon resonance follows binding to a sensor surface in real time, without labels.

Experiment [3] concerns the target T4, mouse His-laminin-α4 (mouse, UniProt P97927 826-1816, limits assumed).
T4 construct: Bought His-tagged recombinant protein; also called Murine LAMA4; recombinant mouse LAMA4-His
T4 sequence (looked up): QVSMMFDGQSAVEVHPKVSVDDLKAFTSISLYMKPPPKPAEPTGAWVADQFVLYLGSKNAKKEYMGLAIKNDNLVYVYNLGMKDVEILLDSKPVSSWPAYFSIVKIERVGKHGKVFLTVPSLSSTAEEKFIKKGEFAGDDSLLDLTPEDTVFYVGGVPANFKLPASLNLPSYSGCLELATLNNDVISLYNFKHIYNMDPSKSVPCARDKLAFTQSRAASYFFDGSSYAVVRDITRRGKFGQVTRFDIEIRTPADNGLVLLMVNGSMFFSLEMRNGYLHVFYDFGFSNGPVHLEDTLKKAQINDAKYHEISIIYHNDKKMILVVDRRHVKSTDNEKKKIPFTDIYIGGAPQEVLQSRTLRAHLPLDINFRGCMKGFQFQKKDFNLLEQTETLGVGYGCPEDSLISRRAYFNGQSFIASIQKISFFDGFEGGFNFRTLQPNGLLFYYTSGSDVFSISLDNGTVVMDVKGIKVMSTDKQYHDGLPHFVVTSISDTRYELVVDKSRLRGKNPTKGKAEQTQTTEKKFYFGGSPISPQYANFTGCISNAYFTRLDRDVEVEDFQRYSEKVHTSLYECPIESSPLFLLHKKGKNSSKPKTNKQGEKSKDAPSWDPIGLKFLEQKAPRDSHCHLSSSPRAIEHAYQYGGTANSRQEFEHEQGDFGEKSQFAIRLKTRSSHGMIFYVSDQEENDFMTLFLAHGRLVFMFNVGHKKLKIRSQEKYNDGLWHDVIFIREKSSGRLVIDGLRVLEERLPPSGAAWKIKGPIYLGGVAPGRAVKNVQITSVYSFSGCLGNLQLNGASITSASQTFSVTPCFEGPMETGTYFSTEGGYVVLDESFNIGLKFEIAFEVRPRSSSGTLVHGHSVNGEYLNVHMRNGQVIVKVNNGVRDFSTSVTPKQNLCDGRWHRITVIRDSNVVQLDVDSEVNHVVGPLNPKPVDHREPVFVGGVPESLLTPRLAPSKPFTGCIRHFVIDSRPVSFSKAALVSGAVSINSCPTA
Kind of experiment: Biacore SPR.

The target in experiment [4] is T5, human LAMA4 G domain (LG1-5) displayed on 293 cells (human, UniProt Q16363 830-1821).
T5 construct: the vector's tags and membrane anchor are not written here; also called LAMA4-displaying human 293 cells; full length
T5 sequence: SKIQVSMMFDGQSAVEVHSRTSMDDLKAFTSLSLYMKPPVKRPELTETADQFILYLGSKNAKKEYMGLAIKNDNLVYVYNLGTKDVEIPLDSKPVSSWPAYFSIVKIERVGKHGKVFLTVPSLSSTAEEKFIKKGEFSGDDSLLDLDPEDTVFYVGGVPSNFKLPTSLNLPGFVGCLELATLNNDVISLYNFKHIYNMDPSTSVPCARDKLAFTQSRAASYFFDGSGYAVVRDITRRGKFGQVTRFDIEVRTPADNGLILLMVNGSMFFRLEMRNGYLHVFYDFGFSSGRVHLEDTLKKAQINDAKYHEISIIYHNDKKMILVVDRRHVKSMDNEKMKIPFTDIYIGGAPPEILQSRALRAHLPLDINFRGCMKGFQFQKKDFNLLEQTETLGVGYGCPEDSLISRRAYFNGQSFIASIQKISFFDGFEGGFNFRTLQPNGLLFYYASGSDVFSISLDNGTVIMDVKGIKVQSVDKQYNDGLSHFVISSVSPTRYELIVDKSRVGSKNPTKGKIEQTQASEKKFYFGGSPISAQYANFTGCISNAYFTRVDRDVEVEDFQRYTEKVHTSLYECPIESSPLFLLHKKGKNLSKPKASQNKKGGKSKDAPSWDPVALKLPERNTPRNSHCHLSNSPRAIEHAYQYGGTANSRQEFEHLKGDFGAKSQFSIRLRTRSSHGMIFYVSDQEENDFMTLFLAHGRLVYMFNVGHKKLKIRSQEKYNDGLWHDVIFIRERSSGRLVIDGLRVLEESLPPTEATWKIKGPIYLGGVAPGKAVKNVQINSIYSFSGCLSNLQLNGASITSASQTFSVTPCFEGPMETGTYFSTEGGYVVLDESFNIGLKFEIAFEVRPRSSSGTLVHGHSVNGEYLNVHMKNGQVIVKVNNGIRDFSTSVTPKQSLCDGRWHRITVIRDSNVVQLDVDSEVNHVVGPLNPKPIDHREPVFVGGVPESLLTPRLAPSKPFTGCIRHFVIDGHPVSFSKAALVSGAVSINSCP
Kind of experiment: LAMA4 pDisplay flow cytometric blocking assay on LAMA4-displaying 293 cells; blocked ligand: 650-conjugated mouse MCAM-Fc.

The target in experiment [5] is T4, mouse His-laminin-α4. Kind of experiment: ELISA hMCAM-Fc capture blocking assay; antibody pre-incubated with mouse LAMA4-His; blocked partner: captured hMCAM-Fc. (An ELISA detects its analyte on a solid surface through an enzyme-linked reagent.)
Experiment [6] concerns the target T1, recombinant laminin 411. Kind of experiment: hMCAM.CHO flow cytometric blocking assay; antibody pre-incubated with laminin 411; blocked partner: human MCAM on CHO cells. The method, then: The monoclonal antibodies against LAMA4 were tested for their ability to block the binding of LAMA4 to its ligand MCAM. IgG control antibody, 1C1, 5Al2, 5B5, 19C12, and 12D3 were pre-incubated with recombinant LAMA4 protein, LAMA4-positive healthy mouse brain tissue, or LAMA4-displaying human 293 cells. […] For the mouse brain tissue blocking assay, antibodies were used at concentrations of 2.5 ug/ml or 0.04 ug/ml.
as §1

T1 sequence (P07942 22-1786 limits assumed, chain 2 of 2): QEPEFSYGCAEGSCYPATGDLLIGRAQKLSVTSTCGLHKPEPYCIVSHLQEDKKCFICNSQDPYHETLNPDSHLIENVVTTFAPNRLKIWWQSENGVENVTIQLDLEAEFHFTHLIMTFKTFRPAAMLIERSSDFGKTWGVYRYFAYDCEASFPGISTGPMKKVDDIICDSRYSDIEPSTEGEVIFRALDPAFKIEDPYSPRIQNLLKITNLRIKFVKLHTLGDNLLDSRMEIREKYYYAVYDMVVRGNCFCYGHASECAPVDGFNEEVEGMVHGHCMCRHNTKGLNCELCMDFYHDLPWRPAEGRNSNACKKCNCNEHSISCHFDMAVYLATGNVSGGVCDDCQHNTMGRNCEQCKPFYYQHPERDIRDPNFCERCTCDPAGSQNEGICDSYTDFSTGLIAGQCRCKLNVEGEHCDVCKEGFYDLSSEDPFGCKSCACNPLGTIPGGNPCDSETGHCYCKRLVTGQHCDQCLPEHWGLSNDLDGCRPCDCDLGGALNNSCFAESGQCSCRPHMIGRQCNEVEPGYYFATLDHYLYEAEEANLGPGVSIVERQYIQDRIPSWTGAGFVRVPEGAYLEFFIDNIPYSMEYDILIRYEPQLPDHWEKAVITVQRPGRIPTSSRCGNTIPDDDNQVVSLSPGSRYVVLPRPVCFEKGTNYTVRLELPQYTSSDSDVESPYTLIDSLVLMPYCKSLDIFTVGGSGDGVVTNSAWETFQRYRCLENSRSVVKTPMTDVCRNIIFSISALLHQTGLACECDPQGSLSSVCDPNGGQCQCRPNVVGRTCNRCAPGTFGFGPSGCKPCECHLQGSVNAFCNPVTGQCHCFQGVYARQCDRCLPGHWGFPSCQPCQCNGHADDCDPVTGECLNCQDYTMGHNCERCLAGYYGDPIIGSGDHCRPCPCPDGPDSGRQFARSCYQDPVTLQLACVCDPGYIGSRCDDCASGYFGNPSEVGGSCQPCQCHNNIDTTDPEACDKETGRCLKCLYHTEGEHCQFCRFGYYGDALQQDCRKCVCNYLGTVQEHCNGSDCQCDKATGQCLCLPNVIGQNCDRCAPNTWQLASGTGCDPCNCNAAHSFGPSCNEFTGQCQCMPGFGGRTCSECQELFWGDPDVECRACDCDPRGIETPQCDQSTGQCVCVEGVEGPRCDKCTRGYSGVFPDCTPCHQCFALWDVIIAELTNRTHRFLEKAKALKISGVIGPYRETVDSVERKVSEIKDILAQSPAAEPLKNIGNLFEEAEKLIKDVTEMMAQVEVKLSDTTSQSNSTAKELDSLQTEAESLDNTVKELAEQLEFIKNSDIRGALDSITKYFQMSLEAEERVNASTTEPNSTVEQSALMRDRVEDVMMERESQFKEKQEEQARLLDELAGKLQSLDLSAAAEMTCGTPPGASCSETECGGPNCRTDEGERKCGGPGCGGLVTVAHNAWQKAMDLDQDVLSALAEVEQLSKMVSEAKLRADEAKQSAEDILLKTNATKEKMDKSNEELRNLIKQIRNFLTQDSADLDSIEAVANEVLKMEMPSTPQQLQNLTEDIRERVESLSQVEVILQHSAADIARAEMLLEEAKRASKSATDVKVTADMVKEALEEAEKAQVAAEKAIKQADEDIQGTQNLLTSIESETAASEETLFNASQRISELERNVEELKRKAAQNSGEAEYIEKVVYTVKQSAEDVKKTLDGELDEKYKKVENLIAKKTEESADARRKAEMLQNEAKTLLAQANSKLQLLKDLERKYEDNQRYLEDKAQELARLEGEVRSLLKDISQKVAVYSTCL
T1 sequence (P11047 34-1609 limits assumed, chain 3 of 2): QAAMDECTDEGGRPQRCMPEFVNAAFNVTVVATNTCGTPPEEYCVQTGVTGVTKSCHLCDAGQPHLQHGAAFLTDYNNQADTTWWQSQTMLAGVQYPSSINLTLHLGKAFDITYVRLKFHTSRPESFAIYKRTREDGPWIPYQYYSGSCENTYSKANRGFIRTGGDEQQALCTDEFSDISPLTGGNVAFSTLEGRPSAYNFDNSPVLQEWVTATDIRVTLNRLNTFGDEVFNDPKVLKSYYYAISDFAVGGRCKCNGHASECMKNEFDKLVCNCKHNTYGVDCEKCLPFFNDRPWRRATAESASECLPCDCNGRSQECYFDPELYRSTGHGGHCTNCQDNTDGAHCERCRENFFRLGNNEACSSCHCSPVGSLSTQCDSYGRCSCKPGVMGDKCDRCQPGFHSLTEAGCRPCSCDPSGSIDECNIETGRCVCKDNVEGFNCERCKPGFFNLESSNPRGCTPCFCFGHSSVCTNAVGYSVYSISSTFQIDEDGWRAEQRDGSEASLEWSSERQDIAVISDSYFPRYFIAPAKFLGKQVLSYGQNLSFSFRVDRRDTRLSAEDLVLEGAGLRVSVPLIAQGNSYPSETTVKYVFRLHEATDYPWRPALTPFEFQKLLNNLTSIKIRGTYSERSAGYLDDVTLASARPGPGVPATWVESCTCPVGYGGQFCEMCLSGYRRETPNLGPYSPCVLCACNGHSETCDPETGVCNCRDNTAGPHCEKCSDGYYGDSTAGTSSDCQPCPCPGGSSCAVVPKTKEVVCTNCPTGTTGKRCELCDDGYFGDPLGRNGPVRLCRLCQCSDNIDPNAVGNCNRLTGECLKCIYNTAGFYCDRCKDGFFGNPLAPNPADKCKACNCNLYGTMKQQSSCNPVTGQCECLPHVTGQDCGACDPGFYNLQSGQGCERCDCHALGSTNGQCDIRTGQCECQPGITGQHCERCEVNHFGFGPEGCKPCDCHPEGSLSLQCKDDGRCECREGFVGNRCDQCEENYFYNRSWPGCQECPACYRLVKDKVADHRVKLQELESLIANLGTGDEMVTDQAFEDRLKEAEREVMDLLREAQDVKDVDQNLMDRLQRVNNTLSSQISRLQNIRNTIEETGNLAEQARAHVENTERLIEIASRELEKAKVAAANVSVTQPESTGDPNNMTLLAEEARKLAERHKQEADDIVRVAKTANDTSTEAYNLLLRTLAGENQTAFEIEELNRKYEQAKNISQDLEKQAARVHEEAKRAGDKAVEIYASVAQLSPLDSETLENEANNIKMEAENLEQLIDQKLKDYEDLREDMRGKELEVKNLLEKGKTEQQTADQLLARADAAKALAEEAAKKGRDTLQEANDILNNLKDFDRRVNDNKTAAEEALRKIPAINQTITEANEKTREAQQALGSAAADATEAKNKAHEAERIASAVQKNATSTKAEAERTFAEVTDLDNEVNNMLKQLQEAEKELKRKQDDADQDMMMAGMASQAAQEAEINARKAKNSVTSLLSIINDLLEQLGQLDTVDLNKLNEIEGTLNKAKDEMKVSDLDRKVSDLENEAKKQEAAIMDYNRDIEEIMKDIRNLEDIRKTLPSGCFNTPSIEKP

B1: chimeric 19C12 antibody (antibody, V domains shown)
VH: QVQLQQSGAELVKPGASVKISCKASGYAFSTYWMNWVKQRPGEGLEWIGQIYPGDGDTNYNGKFKGKATLTADKSSSTAYMQLSSLTSEDSAVYFCARSDGYYDYWGQGTTLTVSS
VL: NIVLTQSPASLAVSLGQRATISCRASESVDSYGTSFMHWYQQKPGQPPKLLICLASSLESGVPARFSGSGSRTDFTLTIDPVEADDAATYYCQQNNEDPPTFGAGTKLELKR
notes: Mouse 19C12 variable regions with human constant regions (captured by anti-human Fc, detected by anti-human secondary); also called chi19C12; 19C12 chi
Consider B1, for which the “IC50 (read off the curve)” value with recombinant laminin 411 [1] was around 0.7 µg/mL. For the same molecule, the binding result in experiment [2] was “no binding (tested: 5 ug/ml)”.

B2: mouse monoclonal antibody 5A12 (antibody, V domains shown)
VH: QVQLQQPGAELVKPGASVKLSCKASGYTFTSYWMHWVKQRPGRGLEWIGRIDPNSGGTKHNEKFKSKATLTVDKPSSTAYMQLSSLTSEDSAVYYCAGSPSYYDYALHYAMDYWGQGTSVTVSS
VL: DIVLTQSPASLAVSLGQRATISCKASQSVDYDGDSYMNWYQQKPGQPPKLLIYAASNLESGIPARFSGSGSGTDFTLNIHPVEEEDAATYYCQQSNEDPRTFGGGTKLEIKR
notes: version 1 is written here; also called 5Al2
For B2, the figures for the Kd with human His-laminin-α4 and in the experiment with mouse His-laminin-α4 [3] were 10.9 nM and 10.3 nM, respectively. The koff (usually the first-order rate constant of dissociation) came to 0.00791 s⁻¹ in the experiment with human His-laminin-α4 and 0.00815 s⁻¹ in the experiment with mouse His-laminin-α4 [3]. Further, the values for the kon in the experiment with human His-laminin-α4 and with mouse His-laminin-α4 [3] were 723000 M⁻¹ s⁻¹ and 795000 M⁻¹ s⁻¹, respectively. Besides, the results for the “IC50 (read off the curve)” value (in experiment [4]; with mouse His-laminin-α4 [5]; with recombinant laminin 411 [6]) were around 0.1 µg/mL, around 0.2 µg/mL and around 0.06 µg/mL, respectively.
